Laboratory results reported in PMC10641069, “Intra- and inter-molecular regulation by intrinsically-disordered regions governs PUF protein RNA binding” (Nature Communications, 2023).
Changes are numbered by the printed parent chain. Values joined by “and” are separate entries in the source; they are usually repeats but may differ in a detail not shown here. Equal entries are not always repeated. Where two headings read alike, the source gives them in different places.

T1: FBF-2 RBD (FBF-2 residues 164-575) (C. elegans, UniProt Q09312 164-575)
T1 chain: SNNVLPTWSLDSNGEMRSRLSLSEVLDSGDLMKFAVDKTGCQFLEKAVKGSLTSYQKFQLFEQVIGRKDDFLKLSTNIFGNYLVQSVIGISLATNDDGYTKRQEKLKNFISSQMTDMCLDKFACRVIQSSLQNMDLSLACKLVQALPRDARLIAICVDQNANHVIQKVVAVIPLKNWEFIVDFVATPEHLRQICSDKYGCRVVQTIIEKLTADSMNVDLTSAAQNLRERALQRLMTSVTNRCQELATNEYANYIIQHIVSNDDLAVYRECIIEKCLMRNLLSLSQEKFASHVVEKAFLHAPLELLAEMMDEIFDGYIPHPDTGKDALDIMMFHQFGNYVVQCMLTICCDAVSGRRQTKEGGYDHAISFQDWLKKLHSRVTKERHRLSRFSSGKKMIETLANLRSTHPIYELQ

T2: FBF-2 RBD + CT L610A (C. elegans, UniProt Q09312 164-632, L610A)
T2 sequence: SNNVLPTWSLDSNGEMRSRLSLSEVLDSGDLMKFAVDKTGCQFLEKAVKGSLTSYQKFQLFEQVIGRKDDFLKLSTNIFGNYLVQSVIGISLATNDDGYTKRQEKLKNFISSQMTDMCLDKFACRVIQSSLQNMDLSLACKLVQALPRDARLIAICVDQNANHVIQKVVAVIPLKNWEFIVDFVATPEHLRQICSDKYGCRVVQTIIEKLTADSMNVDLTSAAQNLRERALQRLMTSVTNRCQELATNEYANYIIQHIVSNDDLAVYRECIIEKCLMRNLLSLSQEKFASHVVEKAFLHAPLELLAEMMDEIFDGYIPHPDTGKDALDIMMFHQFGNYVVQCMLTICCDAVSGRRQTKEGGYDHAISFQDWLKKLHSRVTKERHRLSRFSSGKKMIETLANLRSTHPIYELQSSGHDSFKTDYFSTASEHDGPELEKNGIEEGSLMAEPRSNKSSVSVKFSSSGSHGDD

T3: FBF-2 RBD + CT (FBF-2 residues 164-632) (C. elegans, UniProt Q09312 164-632)
T3 chain: T2 sequence with A447L

T4: FBF-2 RBD + CT Loop6A (C. elegans, UniProt Q09312 164-632, E592A | D594A | E597A | E599A | E604A | E605A)
T4 sequence: T2 sequence with E429A, D431A, E434A, E436A, E441A, E442A, A447L

T5: FBF-2 RBD + CT L610A (C. elegans, UniProt Q09312 164-632, L610A)
T5 construct: source: E. coli, expressed and purified like wild type proteins; not shown: His6-SUMO, N-terminal, cleaved
T5 sequence (looked up): T2 sequence

T6: FBF-2 RBD + CT Loop6A (C. elegans, UniProt Q09312 164-632, E592A | D594A | E597A | E599A | E604A | E605A)
T6 construct: source: E. coli, expressed and purified like wild type proteins; not shown: His6-SUMO, N-terminal, cleaved
T6 sequence (looked up): T2 sequence with E429A, D431A, E434A, E436A, E441A, E442A, A447L

T7: FBF-2 RBD+CT (Caenorhabditis elegans, UniProt Q09312 164-632)
T7 sequence: T2 sequence with A447L

T8: FBF-2 RBD+CT Y479A (Caenorhabditis elegans, UniProt Q09312 164-632, Y479A)
T8 sequence: T2 sequence with Y316A, A447L

T9: FBF-2 RBD+CT Loop6A (Caenorhabditis elegans, UniProt Q09312 164-632, E592A;D594A;E597A;E599A;E604A;E605A)
T9 sequence: T2 sequence with E429A, D431A, E434A, E436A, E441A, E442A, A447L

T10: FBF-2 RBD (Caenorhabditis elegans, UniProt Q09312 164-575)
T10 sequence: T1 chain

T11: FBF-2 RBD+CT L610A (Caenorhabditis elegans, UniProt Q09312 164-632, L610A)
T11 sequence: T2 sequence

B1: FBF-2 RBD + CT (FBF-2 residues 164-632) (domain or fragment, C. elegans, UniProt Q09312 164-632, looked up)
chain: T2 sequence with A447L
notes: The tag was cleaved with Ulp1 protease; also called FBF-2^164–632; wild type RBD + CT; source: E. coli BL21-CodonPlus (DE3)-RIL, purified (Ni-NTA, heparin, Superdex 75); not shown: His6-SUMO, N-terminal, cleaved
B2: LST-1 B peptide (LST-1 residues 67-98) (peptide, UniProt P91820 67-98, looked up)
chain: SSSPQQRSGLRSQKLHLTYIEKNKRVRAMIPQ
notes: The tag was cleaved with Ulp1 protease; also called LST-1^67–98; source: E. coli, purified (Ni-NTA, heparin, Superdex 75); not shown: His6-SUMO, N-terminal, cleaved
B3: cFBE RNA (ssRNA)
RNA: CUGUGAAUG
B4: gld-1 FBEa RNA (SPR) (ssRNA)
RNA: AUCAUGUGCCAUACA

Columns and labels:
[1] = molecular target: the molecule itself; test: crystal structure; FBF-2 RBD + CT with cFBE RNA (5′-CUGUGAAUG-3′), 2.1 Å; CT residues 607-613 seen bound to the RBD of the same construct (intramolecular by the paper's words)
[2] = molecular target: B1; test: cell-based or functional assay
[3] = molecular target: T1, FBF-2 RBD (FBF-2 residues 164-575); test: ITC
FBF-2 RBD + CT L610A [4] = molecular target: T2, FBF-2 RBD + CT L610A; test: ITC
[5] = molecular target: T3, FBF-2 RBD + CT (FBF-2 residues 164-632); test: ITC
[6] = molecular target: T1, FBF-2 RBD (FBF-2 residues 164-575); test: ITC
FBF-2 RBD + CT Loop6A [7] = molecular target: T4, FBF-2 RBD + CT Loop6A; test: ITC
[8] = molecular target: B1; test: ITC; peptide (100–400 µM) titrated from the syringe into the cell containing FBF-2 (10–30 µM); 20 °C; 20 mM HEPES pH 7.4, 150 mM NaCl, 0.5 mM TCEP; no RNA; one-site model; mean of two replicates; details: both partners purified
FBF-2 RBD + CT L610A [9] = molecular target: T5, FBF-2 RBD + CT L610A; test: as above; details: both partners purified
FBF-2 RBD + CT Loop6A [10] = molecular target: T6, FBF-2 RBD + CT Loop6A; test: as above; details: both partners purified
FBF-2 RBD+CT [11] = molecular target: T7, FBF-2 RBD+CT; test: crystal structure; 2.1 A; 30% PEG 400, 0.1 M Tris pH 8.5; EMSA: FBF-2 in 20 mM HEPES pH 7.4, 150 mM NaCl, 0.5 mM TCEP mixed 1:1 with 5 nM final RNA in 10 mM HEPES pH 7.4, 0.01% Tween 20, 0.1 mg/ml BSA, 0.1 mg/ml yeast; details: protein: recombinant; tags: none (His6-SUMO removed with Ulp1)
FBF-2 RBD+CT [12] = molecular target: T7, FBF-2 RBD+CT; test: SPR; kon 7.1e4 M-1 s-1, koff 4.42e-3 s-1; EMSA: FBF-2 in 20 mM HEPES pH 7.4, 150 mM NaCl, 0.5 mM TCEP mixed 1:1 with 5 nM final RNA in 10 mM HEPES pH 7.4, 0.01% Tween 20, 0.1 mg/ml BSA, 0.1 mg/ml yeast; details: protein: recombinant; tags: none (His6-SUMO removed with Ulp1); label: 3'-biotin
FBF-2 RBD+CT Y479A = molecular target: T8, FBF-2 RBD+CT Y479A; test: SPR; kon 10.2e4 M-1 s-1, koff 1.18e-3 s-1; EMSA: FBF-2 in 20 mM HEPES pH 7.4, 150 mM NaCl, 0.5 mM TCEP mixed 1:1 with 5 nM final RNA in 10 mM HEPES pH 7.4, 0.01% Tween 20, 0.1 mg/ml BSA, 0.1 mg/ml yeast; details: protein: recombinant; tags: none (His6-SUMO removed with Ulp1); label: 3'-biotin
FBF-2 RBD+CT Loop6A = molecular target: T9, FBF-2 RBD+CT Loop6A; test: SPR; kon 10.9e4 M-1 s-1, koff 0.94e-3 s-1; EMSA: FBF-2 in 20 mM HEPES pH 7.4, 150 mM NaCl, 0.5 mM TCEP mixed 1:1 with 5 nM final RNA in 10 mM HEPES pH 7.4, 0.01% Tween 20, 0.1 mg/ml BSA, 0.1 mg/ml yeast; details: protein: recombinant; tags: none (His6-SUMO removed with Ulp1); label: 3'-biotin
FBF-2 RBD = molecular target: T10, FBF-2 RBD; test: SPR; kon 13.6e4 M-1 s-1, koff 0.86e-3 s-1; EMSA: FBF-2 in 20 mM HEPES pH 7.4, 150 mM NaCl, 0.5 mM TCEP mixed 1:1 with 5 nM final RNA in 10 mM HEPES pH 7.4, 0.01% Tween 20, 0.1 mg/ml BSA, 0.1 mg/ml yeast; details: protein: recombinant; tags: none (His6-SUMO removed with TEV protease); label: 3'-biotin
FBF-2 RBD+CT L610A = molecular target: T11, FBF-2 RBD+CT L610A; test: SPR; kon 15.5e4 M-1 s-1, koff 1.36e-3 s-1; EMSA: FBF-2 in 20 mM HEPES pH 7.4, 150 mM NaCl, 0.5 mM TCEP mixed 1:1 with 5 nM final RNA in 10 mM HEPES pH 7.4, 0.01% Tween 20, 0.1 mg/ml BSA, 0.1 mg/ml yeast; details: protein: recombinant; tags: none (His6-SUMO removed with Ulp1); label: 3'-biotin

B1
binding result [1]: binds

B2
RNA-binding affinity of FBF-2 RBD + CT for gld-1 FBEa RNA by EMSA in the presence of 50 µM LST-1 B [2]: 5 fold | Kd [3]: 50 nM | Kd (FBF-2 RBD + CT L610A [4]): 46 nM and 77 nM | Kd [5]: 2100 nM and 3300 nM | Kd [6]: 46 nM and 45 nM | Kd (FBF-2 RBD + CT Loop6A [7]): 1300 nM and 1100 nM | Kd [8]: 2700 nM | Kd (FBF-2 RBD + CT L610A [9]): 60 nM | binding result (FBF-2 RBD + CT Loop6A [10]): binds

B3
binding result (FBF-2 RBD+CT [11]): binds

B4
Kd (FBF-2 RBD+CT [12]): 65.1 ± 21.1 nM | Kd (FBF-2 RBD+CT Y479A): 12.9 ± 6.4 nM | Kd (FBF-2 RBD+CT Loop6A): 9.5 ± 4.2 nM | Kd (FBF-2 RBD): 6.6 ± 2.3 nM | Kd (FBF-2 RBD+CT L610A): 9.4 ± 3.6 nM
